Results as given in patent US20200087383A1 (NATIONAL CHENG KUNG UNIVERSITY, published 2020).

Legend:
[1] = biological target: bovine serum albumin (BSA) (bovine, UniProt P02769 25-607); test: western blotting
[2] = biological target: T1, antigen comprising the amino acid sequence YKDWSEWGKAC (SEQ ID NO: 12); test: ELISA of hybridoma supernatants on the antigen comprising SEQ ID NO: 12
T1 construct: Any carrier or conjugate is not described; also called screening antigen
T1 peptide: YKDWSEWGKAC

bovine serum albumin (BSA), sequence (P02769 25-607 limits assumed): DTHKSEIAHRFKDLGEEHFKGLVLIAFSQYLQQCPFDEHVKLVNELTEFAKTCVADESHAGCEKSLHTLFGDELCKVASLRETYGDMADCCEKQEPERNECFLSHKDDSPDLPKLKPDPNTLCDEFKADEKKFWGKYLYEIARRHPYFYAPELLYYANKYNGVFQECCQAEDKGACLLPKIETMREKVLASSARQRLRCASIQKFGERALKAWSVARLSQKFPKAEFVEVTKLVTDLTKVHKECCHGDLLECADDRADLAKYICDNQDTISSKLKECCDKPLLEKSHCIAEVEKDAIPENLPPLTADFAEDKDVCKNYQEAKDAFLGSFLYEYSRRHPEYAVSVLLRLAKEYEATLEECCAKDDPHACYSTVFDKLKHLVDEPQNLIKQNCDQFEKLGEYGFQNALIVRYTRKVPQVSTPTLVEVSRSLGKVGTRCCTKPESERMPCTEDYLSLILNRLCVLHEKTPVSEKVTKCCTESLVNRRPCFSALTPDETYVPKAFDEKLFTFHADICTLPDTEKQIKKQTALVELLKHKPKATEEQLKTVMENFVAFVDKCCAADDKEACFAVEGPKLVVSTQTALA

B1: anti-DENV NS1 monoclonal antibody mAb 33D2 (antibody, V domains shown)
VH: DVQLQESGPGLVKPSQSLSLTCTVTGYSITSDYAWNWIRQFPGNKLEWMGFISYSGSARYNPSLISRTSITRDTSKNQFFLHLNSVTTEDTAIYYCARVERLGYFDVWGAGTTVTVSS
VL: DIVLTQSPASLAVSLGQRASISCKASQSVDYDGDSYMHWYQQKPGQPFKLLIYAASNLESGIPARFSGSGSGTVFTLNIHPVEEEDAATYYCQQSNEDPTFGGGTRLEIKR
notes: also called anti-NS1 mAb 33D2; anti-DENV antibody 33D2
binding result [1]: no binding | binding result [2]: binds
